± gives the half width of the 95% confidence interval.
What was measured:
[1] = folding stability dG unfold (combined trypsin and chymotrypsin); higher = more stable
Summary of the method: (§1)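 Unfolding free energy was derived, per protease or combined, by relating Bayesian-fitted K50 values from sequencing counts to a sequence-predicted unfolded-state K50 and a shared folded-state K50. The underlying digests exposed cysteine-free mini-proteins under 80 residues, in a PA-tagged cDNA display construct, to trypsin and chymotrypsin at 11 threefold-diluted concentrations and to a no-protease condition. A filter kept only designs with AlphaFold2 dimer inter-PAE above 15.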

[2] = folding stability dG unfold from chymotrypsin proteolysis; higher = more stable
Summary of the method: as §1

[3] = folding stability dG unfold from trypsin proteolysis; higher = more stable
Summary of the method: as §1

Sequence | folding stability dG unfold [1] [kcal/mol] | folding stability dG unfold [2] [kcal/mol] | folding stability dG unfold [3] [kcal/mol]
SAGGSAGGSAGGKKIEIPGFEITKVEPLENDSVIAEGKFKNGKKYRILFLPNKVYINDESAGGSAGGSAGGS [r10_312_TrMRF] | 0.357 ± 0.16 | 0.44 ± 0.2 | 0.335 ± 0.16
SAGGSAGGSAGGKKIKIPKKVKVKVVKKKDGKLLVYLEKTGKVIELPVEDLKNITAEDLSAGGSAGGSAGGS [r10_709_TrROS_Hall] | 0.408 ± 0.094 | -0.63 ± 0.3 | 0.976 ± 0.038
SAGGSAGGSAGGKKITIVMSAEEAEALAKALEDAGIDIDNLKIEVVKVEFPPALPAEDKSAGGSAGGSAGGS [r10_602_TrROS_Hall] | 1.57 ± 0.074 | 1.8 ± 0.051 | 1.2 ± 0.029
SAGGSAGGSAGGKKKFGFLILVKNKDDEKLYLVEVPEELSLEEFLPDQEIDEEVIKKAIGSAGGSAGGSAGG [r17_412_TrMRF] | 0.724 ± 0.18 | 0.665 ± 0.27 | 0.823 ± 0.082
SAGGSAGGSAGGKKKIKVELEVKEDGTIRMKATTEDGEEIETEIKVEKVEVTVFLPPEKSAGGSAGGSAGGS [r10_237_TrROS_Hall] | 1.55 ± 0.28 | 1.18 ± 0.23 | 1.74 ± 0.26
SAGGSAGGSAGGKKKKVKKKVTITIKLSAEEVAKLLKDLYPEKNIKIEENEDGSLSVTFTSAGGSAGGSAGG [r7_670_TrROS_Hall] | 2.26 ± 0.11 | 2.39 ± 0.041 | 2 ± 0.098
SAGGSAGGSAGGKKLRIKVKNKKTGKEIEIEIDVEDKTIEEIAKELAKKLNFEVTEIEPVSAGGSAGGSAGG [r7_590_TrROS_Hall] | 2.74 ± 0.24 | 2.9 ± 0.12 | 2.2 ± 0.18
SAGGSAGGSAGGKKLTFKAEIVSEEEIEINGKKYRIFKVKVTLPDGSKLTLTVIVELDDLSAGGSAGGSAGG [r7_846_TrROS_Hall] | 3.84 ± 0.096 | 4.22 ± 0.056 | 2.83 ± 0.036
SAGGSAGGSAGGKKPITLTVLVTDPDGYLLQRTTTLTLDEDTNELTATTTVTRIPLEDLSAGGSAGGSAGGS [r10_1225_TrROS_Hall] | 1.6 ± 0.13 | 1.97 ± 0.088 | 0.684 ± 0.11
SAGGSAGGSAGGKKTINVEIVKIEVTKNKKTNEYTVKIYIKDTGKTITLTVKPGDIIKISAGGSAGGSAGGS [r10_819_TrROS_Hall] | 3.1 ± 0.21 | 3.28 ± 0.1 | 1.42 ± 0.064
SAGGSAGGSAGGKKTITVPKGAVVRITYKNGEKKEVKAGETITIEDLPEDVKIEVVKVKKSAGGSAGGSAGG [r7_968_TrROS_Hall] | 2.19 ± 0.094 | 2.44 ± 0.03 | 1.73 ± 0.06
SAGGSAGGSAGGKKVKITVVLEFDGVLLVAEAEIEFDENGKIVEIKVKVELFPAPEEGEESAGGSAGGSAGG [r7_135_TrROS_Hall] | 2.96 ± 0.48 | 2.39 ± 0.18 | 3.21 ± 0.36
SAGGSAGGSAGGKKVTITLKDANGKELKIEVKEGEEVTIEVGGKKYKLTVKDGKIELKPVSAGGSAGGSAGG [r7_510_TrROS_Hall] | 4.61 ± 0.44 | 4.67 ± 0.23 | 4.03 ± 0.28
SAGGSAGGSAGGKKYKIKVYVKDKKTKKWKKIKEIEVDTKEEALEAIKKLPPNYEVKIVPSAGGSAGGSAGG [r7_307_TrROS_Hall] | 4.91 ± 0.14 | 5.04 ± 0.068 | 4.11 ± 0.14
SAGGSAGGSAGGKKYKVVSIEKTKDYVRITIYNEETGELKTFTFPPGSTVTIKPGDTLTSAGGSAGGSAGGS [r10_834_TrROS_Hall] | 4.42 ± 0.12 | 4.53 ± 0.15 | 3.88 ± 0.2
SAGGSAGGSAGGKPKKILNIELVLKGKDGKKYKLKIEIYNYPDKPKIYITFPDGTTIEASAGGSAGGSAGGS [r10_404_TrMRF] | 5.15 ± 0.21 | 5.28 ± 0.19 | 3.54 ± 0.13
SAGGSAGGSAGGKPKLIVRVKIKNENGEEIEIEIEVETLDEAKEAAKKLGFEIVEVEVLSAGGSAGGSAGGS [r10_882_TrROS_Hall] | 3.28 ± 0.19 | 2.54 ± 0.081 | 3.94 ± 0.23
SAGGSAGGSAGGKPVIYRIEVRLPDSPEREIFEIEVPPDRPEVAEELAKLLGPNVKMEPLSAGGSAGGSAGG [r11_250_TrMRF] | -0.387 ± 0.38 | -0.577 ± 0.49 | -0.166 ± 0.1
SAGGSAGGSAGGKSYTDPNSNTVTTLDEGPGFGKVTTTTYKPEEPVPLETTESIIGPVLSSAGGSAGGSAGG [r7_343_JUSTAS] | 0.273 ± 0.24 | -0.026 ± 0.11 | 0.367 ± 0.04
SAGGSAGGSAGGKTITLPPGMSEEELLEALKKAKPGDTITIEVDGKTYTLKVENGKITLTSAGGSAGGSAGG [r7_560_TrROS_Hall] | 3.56 ± 0.12 | 3.92 ± 0.12 | 2.31 ± 0.14

Reference: the supplement of paper PMC12764529
